Measurements taken from publication PMC11575404.

Tests used:
[1] = target: SARS-CoV-2 N protein truncation NΔN247, Myc-tagged (SARS-CoV-2) (UniProt P0DTC9); test: cross-linking
[2] = target: SARS-CoV-2 N protein truncation NΔN180, Myc-tagged (SARS-CoV-2) (UniProt P0DTC9); test: cross-linking

## SARS-CoV-2 N protein truncation NΔN247, Myc-tagged (from UniProt P0DTC9 248-419) (domain or fragment)
[1]
  stoichiometry N: 2

## SARS-CoV-2 N protein truncation NΔN180, Myc-tagged (from UniProt P0DTC9 181-419) (domain or fragment)
[2]
  stoichiometry N: 2
